{"source": "paper PMC2755895", "about": "(The Journal of Biological Chemistry, 2009)", "key": {"[1]": {"system": "N-terminal domain of MDM2", "settings": "cited from earlier work"}, "subdomains of p300": {"system": "subdomains of p300", "settings": "cited from earlier work"}, "[2]": {"target": "QS2 W53Q/F54S p53N-(35–57) (UniProt P04637)", "assay": "fluorescence polarisation"}, "[3]": {"target": "hDp53N-(10–57)-aspartic acid mimic (UniProt P04637)", "assay": "fluorescence polarisation"}, "[4]": {"target": "mutation of single hydrophobic residues to alanine (p53N peptides)"}, "PC4CTD": {"target": "PC4CTD (Homo sapiens, UniProt P53999)", "assay": "Fluorescence titration of p53TAD peptides", "type": "binding", "settings": "in words"}}, "note": "No end group written: not given here.", "data": [{"substance": "TAD1: p53 transactivation subdomain TAD1-(1–40)", "values": [{"measurement": "interaction with N-terminal domain of MDM2", "setting": "[1]", "result": "very tight"}, {"measurement": "binding to p300 subdomains", "setting": "subdomains of p300", "result": "bind only weakly"}]}, {"substance": "PC4 C-terminal DNA-binding domain, PC4CTD-(61–127) (from UniProt P53999 61-127) (domain or fragment)", "values": [{"measurement": "Kd", "setting": "[2]", "result": 20, "unit": "µM"}, {"measurement": "Kd", "setting": "[3]", "result": 5, "unit": "µM"}, {"measurement": "Kd", "setting": "[4]", "result": "14 to 16", "unit": "µM"}]}, {"substance": "D41K/D42K/D48K/D49K/E51K p53N-(35–57) (LPSQAMKKLMLSPKKIKQWFTED-{K(methoxycoumarin)})", "values": [{"measurement": "quantifiability of binding to PC4CTD", "setting": "PC4CTD", "result": "no quantifiable binding"}]}, {"substance": "p53 N-terminal transactivation domain, TAD-(1–93) (from UniProt P04637 1-93) (domain or fragment)", "values": [{"measurement": "Kd", "setting": "p53 DNA-binding domain", "result": "> 100", "unit": "µM"}]}]}
